Measurements published in patent publication US20140087995A1 (published 2014).
Numbered stars: 1 amine (or outer) side, 2 acyl side, 3 side chain; on linkers, the order of the positions; unused ones are H or OH. Bridge positions count the residues as written; N and C are the ends. Side chains are listed from the residue outwards. Ends that are not written are not given here. * marks the point of attachment. C20 diacid = O=C(O)CCCCCCCCCCCCCCCCCCC(=O)*; γGlu = O=C(O)[C@H](CCC(=O)[*:2])N[*:1]

T1: human amylin receptor (amylin 3(a) receptor: human calcitonin receptor with RAMP-3) (human, UniProt P30988 25-474; O60896 24-148)
T1 construct: whole, on cells; also called hAmylin-R; hAmylinR
T1 sequence (looked up) 1: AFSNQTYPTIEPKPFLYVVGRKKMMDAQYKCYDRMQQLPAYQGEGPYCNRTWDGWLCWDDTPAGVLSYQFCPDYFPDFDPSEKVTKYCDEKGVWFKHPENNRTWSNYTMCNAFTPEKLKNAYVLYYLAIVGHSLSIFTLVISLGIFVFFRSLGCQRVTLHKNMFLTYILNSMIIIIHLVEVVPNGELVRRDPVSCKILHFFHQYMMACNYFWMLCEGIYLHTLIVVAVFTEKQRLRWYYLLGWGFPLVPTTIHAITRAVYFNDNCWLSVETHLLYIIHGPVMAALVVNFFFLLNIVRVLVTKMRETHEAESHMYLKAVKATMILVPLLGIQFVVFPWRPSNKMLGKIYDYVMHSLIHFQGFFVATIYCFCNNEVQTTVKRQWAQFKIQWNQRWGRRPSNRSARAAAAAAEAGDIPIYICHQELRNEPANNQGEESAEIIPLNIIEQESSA
T1 sequence (looked up) 2: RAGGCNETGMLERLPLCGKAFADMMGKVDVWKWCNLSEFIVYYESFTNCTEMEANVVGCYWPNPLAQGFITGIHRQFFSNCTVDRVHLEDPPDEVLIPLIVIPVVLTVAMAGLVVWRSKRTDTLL

B1: N^ε1-[(4S)-4-carboxy-4-(19-carboxynonadecanoylamino)butanoyl]-[Arg14,Arg17,Pro21,Pro27,Pro34]-h-amylin (peptide)
peptide: K([γGlu-C20 diacid])CNTATCATQRLARFLRHSSPNFGAIPSSTNVGPNTY-NH2
modifications: disulfide 2-7; N-terminus assumed
SMILES: CC[C@H](C)[C@H](NC(=O)[C@H](C)NC(=O)CNC(=O)[C@H](Cc1ccccc1)NC(=O)[C@H](CC(N)=O)NC(=O)[C@@H]1CCCN1C(=O)[C@H](CO)NC(=O)[C@H](CO)NC(=O)[C@H](Cc1c[nH]cn1)NC(=O)[C@H](CCCNC(=N)N)NC(=O)[C@H](CC(C)C)NC(=O)[C@H](Cc1ccccc1)NC(=O)[C@H](CCCNC(=N)N)NC(=O)[C@H](C)NC(=O)[C@H](CC(C)C)NC(=O)[C@H](CCCNC(=N)N)NC(=O)[C@H](CCC(N)=O)NC(=O)[C@@H](NC(=O)[C@H](C)NC(=O)[C@@H]1CSSC[C@H](NC(=O)[C@@H](N)CCCCNC(=O)CC[C@H](NC(=O)CCCCCCCCCCCCCCCCCCC(=O)O)C(=O)O)C(=O)N[C@@H](CC(N)=O)C(=O)N[C@@H]([C@@H](C)O)C(=O)N[C@@H](C)C(=O)N[C@@H]([C@@H](C)O)C(=O)N1)[C@@H](C)O)C(=O)N1CCC[C@H]1C(=O)N[C@@H](CO)C(=O)N[C@@H](CO)C(=O)N[C@H](C(=O)N[C@@H](CC(N)=O)C(=O)N[C@H](C(=O)NCC(=O)N1CCC[C@H]1C(=O)N[C@@H](CC(N)=O)C(=O)N[C@H](C(=O)N[C@@H](Cc1ccc(O)cc1)C(N)=O)[C@@H](C)O)C(C)C)[C@@H](C)O
notes: also called 65; compound 65
B2: N^ε1-[(4S)-4-carboxy-4-(19-carboxynonadecanoylamino)butanoyl]-[Arg17,Pro21,Pro27,Arg34]-h-amylin (peptide)
peptide: K([γGlu-C20 diacid])CNTATCATQRLANFLRHSSPNFGAIPSSTNVGRNTY-NH2
modifications: disulfide 2-7; N-terminus assumed
SMILES: CC[C@H](C)[C@H](NC(=O)[C@H](C)NC(=O)CNC(=O)[C@H](Cc1ccccc1)NC(=O)[C@H](CC(N)=O)NC(=O)[C@@H]1CCCN1C(=O)[C@H](CO)NC(=O)[C@H](CO)NC(=O)[C@H](Cc1c[nH]cn1)NC(=O)[C@H](CCCNC(=N)N)NC(=O)[C@H](CC(C)C)NC(=O)[C@H](Cc1ccccc1)NC(=O)[C@H](CC(N)=O)NC(=O)[C@H](C)NC(=O)[C@H](CC(C)C)NC(=O)[C@H](CCCNC(=N)N)NC(=O)[C@H](CCC(N)=O)NC(=O)[C@@H](NC(=O)[C@H](C)NC(=O)[C@@H]1CSSC[C@H](NC(=O)[C@@H](N)CCCCNC(=O)CC[C@H](NC(=O)CCCCCCCCCCCCCCCCCCC(=O)O)C(=O)O)C(=O)N[C@@H](CC(N)=O)C(=O)N[C@@H]([C@@H](C)O)C(=O)N[C@@H](C)C(=O)N[C@@H]([C@@H](C)O)C(=O)N1)[C@@H](C)O)C(=O)N1CCC[C@H]1C(=O)N[C@@H](CO)C(=O)N[C@@H](CO)C(=O)N[C@H](C(=O)N[C@@H](CC(N)=O)C(=O)N[C@H](C(=O)NCC(=O)N[C@@H](CCCNC(=N)N)C(=O)N[C@@H](CC(N)=O)C(=O)N[C@H](C(=O)N[C@@H](Cc1ccc(O)cc1)C(N)=O)[C@@H](C)O)C(C)C)[C@@H](C)O
notes: also called 79; compound 79
B3: N^ε1-[(4S)-4-carboxy-4-(19-carboxynonadecanoylamino)butanoyl]-[Arg14,Arg17,Pro21,Pro27]-h-amylin (peptide)
peptide: K([γGlu-C20 diacid])CNTATCATQRLARFLRHSSPNFGAIPSSTNVGSNTY-NH2
modifications: disulfide 2-7; N-terminus assumed
SMILES: CC[C@H](C)[C@H](NC(=O)[C@H](C)NC(=O)CNC(=O)[C@H](Cc1ccccc1)NC(=O)[C@H](CC(N)=O)NC(=O)[C@@H]1CCCN1C(=O)[C@H](CO)NC(=O)[C@H](CO)NC(=O)[C@H](Cc1c[nH]cn1)NC(=O)[C@H](CCCNC(=N)N)NC(=O)[C@H](CC(C)C)NC(=O)[C@H](Cc1ccccc1)NC(=O)[C@H](CCCNC(=N)N)NC(=O)[C@H](C)NC(=O)[C@H](CC(C)C)NC(=O)[C@H](CCCNC(=N)N)NC(=O)[C@H](CCC(N)=O)NC(=O)[C@@H](NC(=O)[C@H](C)NC(=O)[C@@H]1CSSC[C@H](NC(=O)[C@@H](N)CCCCNC(=O)CC[C@H](NC(=O)CCCCCCCCCCCCCCCCCCC(=O)O)C(=O)O)C(=O)N[C@@H](CC(N)=O)C(=O)N[C@@H]([C@@H](C)O)C(=O)N[C@@H](C)C(=O)N[C@@H]([C@@H](C)O)C(=O)N1)[C@@H](C)O)C(=O)N1CCC[C@H]1C(=O)N[C@@H](CO)C(=O)N[C@@H](CO)C(=O)N[C@H](C(=O)N[C@@H](CC(N)=O)C(=O)N[C@H](C(=O)NCC(=O)N[C@@H](CO)C(=O)N[C@@H](CC(N)=O)C(=O)N[C@H](C(=O)N[C@@H](Cc1ccc(O)cc1)C(N)=O)[C@@H](C)O)C(C)C)[C@@H](C)O
notes: also called 83; compound 83
B4: N^ε1-[(4S)-4-carboxy-4-(19-carboxynonadecanoylamino)butanoyl]-[Arg17,Pro21,Pro27,His35]-h-amylin (peptide)
peptide: K([γGlu-C20 diacid])CNTATCATQRLANFLRHSSPNFGAIPSSTNVGSHTY-NH2
modifications: disulfide 2-7; N-terminus assumed
SMILES: CC[C@H](C)[C@H](NC(=O)[C@H](C)NC(=O)CNC(=O)[C@H](Cc1ccccc1)NC(=O)[C@H](CC(N)=O)NC(=O)[C@@H]1CCCN1C(=O)[C@H](CO)NC(=O)[C@H](CO)NC(=O)[C@H](Cc1c[nH]cn1)NC(=O)[C@H](CCCNC(=N)N)NC(=O)[C@H](CC(C)C)NC(=O)[C@H](Cc1ccccc1)NC(=O)[C@H](CC(N)=O)NC(=O)[C@H](C)NC(=O)[C@H](CC(C)C)NC(=O)[C@H](CCCNC(=N)N)NC(=O)[C@H](CCC(N)=O)NC(=O)[C@@H](NC(=O)[C@H](C)NC(=O)[C@@H]1CSSC[C@H](NC(=O)[C@@H](N)CCCCNC(=O)CC[C@H](NC(=O)CCCCCCCCCCCCCCCCCCC(=O)O)C(=O)O)C(=O)N[C@@H](CC(N)=O)C(=O)N[C@@H]([C@@H](C)O)C(=O)N[C@@H](C)C(=O)N[C@@H]([C@@H](C)O)C(=O)N1)[C@@H](C)O)C(=O)N1CCC[C@H]1C(=O)N[C@@H](CO)C(=O)N[C@@H](CO)C(=O)N[C@H](C(=O)N[C@@H](CC(N)=O)C(=O)N[C@H](C(=O)NCC(=O)N[C@@H](CO)C(=O)N[C@@H](Cc1c[nH]cn1)C(=O)N[C@H](C(=O)N[C@@H](Cc1ccc(O)cc1)C(N)=O)[C@@H](C)O)C(C)C)[C@@H](C)O
notes: also called 60; compound 60
B5: N^ε1-[(4S)-4-carboxy-4-(19-carboxynonadecanoylamino)butanoyl]-[Arg17,Pro21,Pro27,His34]-h-amylin (peptide)
peptide: K([γGlu-C20 diacid])CNTATCATQRLANFLRHSSPNFGAIPSSTNVGHNTY-NH2
modifications: disulfide 2-7; N-terminus assumed
SMILES: CC[C@H](C)[C@H](NC(=O)[C@H](C)NC(=O)CNC(=O)[C@H](Cc1ccccc1)NC(=O)[C@H](CC(N)=O)NC(=O)[C@@H]1CCCN1C(=O)[C@H](CO)NC(=O)[C@H](CO)NC(=O)[C@H](Cc1c[nH]cn1)NC(=O)[C@H](CCCNC(=N)N)NC(=O)[C@H](CC(C)C)NC(=O)[C@H](Cc1ccccc1)NC(=O)[C@H](CC(N)=O)NC(=O)[C@H](C)NC(=O)[C@H](CC(C)C)NC(=O)[C@H](CCCNC(=N)N)NC(=O)[C@H](CCC(N)=O)NC(=O)[C@@H](NC(=O)[C@H](C)NC(=O)[C@@H]1CSSC[C@H](NC(=O)[C@@H](N)CCCCNC(=O)CC[C@H](NC(=O)CCCCCCCCCCCCCCCCCCC(=O)O)C(=O)O)C(=O)N[C@@H](CC(N)=O)C(=O)N[C@@H]([C@@H](C)O)C(=O)N[C@@H](C)C(=O)N[C@@H]([C@@H](C)O)C(=O)N1)[C@@H](C)O)C(=O)N1CCC[C@H]1C(=O)N[C@@H](CO)C(=O)N[C@@H](CO)C(=O)N[C@H](C(=O)N[C@@H](CC(N)=O)C(=O)N[C@H](C(=O)NCC(=O)N[C@@H](Cc1c[nH]cn1)C(=O)N[C@@H](CC(N)=O)C(=O)N[C@H](C(=O)N[C@@H](Cc1ccc(O)cc1)C(N)=O)[C@@H](C)O)C(C)C)[C@@H](C)O
notes: also called 77; compound 77
B6: N^ε1-[(4S)-4-carboxy-4-(19-carboxynonadecanoylamino)butanoyl]-[Arg17,Pro21,Pro27,Glu35]-h-amylin (peptide)
peptide: K([γGlu-C20 diacid])CNTATCATQRLANFLRHSSPNFGAIPSSTNVGSETY-NH2
modifications: disulfide 2-7; N-terminus assumed
SMILES: CC[C@H](C)[C@H](NC(=O)[C@H](C)NC(=O)CNC(=O)[C@H](Cc1ccccc1)NC(=O)[C@H](CC(N)=O)NC(=O)[C@@H]1CCCN1C(=O)[C@H](CO)NC(=O)[C@H](CO)NC(=O)[C@H](Cc1c[nH]cn1)NC(=O)[C@H](CCCNC(=N)N)NC(=O)[C@H](CC(C)C)NC(=O)[C@H](Cc1ccccc1)NC(=O)[C@H](CC(N)=O)NC(=O)[C@H](C)NC(=O)[C@H](CC(C)C)NC(=O)[C@H](CCCNC(=N)N)NC(=O)[C@H](CCC(N)=O)NC(=O)[C@@H](NC(=O)[C@H](C)NC(=O)[C@@H]1CSSC[C@H](NC(=O)[C@@H](N)CCCCNC(=O)CC[C@H](NC(=O)CCCCCCCCCCCCCCCCCCC(=O)O)C(=O)O)C(=O)N[C@@H](CC(N)=O)C(=O)N[C@@H]([C@@H](C)O)C(=O)N[C@@H](C)C(=O)N[C@@H]([C@@H](C)O)C(=O)N1)[C@@H](C)O)C(=O)N1CCC[C@H]1C(=O)N[C@@H](CO)C(=O)N[C@@H](CO)C(=O)N[C@H](C(=O)N[C@@H](CC(N)=O)C(=O)N[C@H](C(=O)NCC(=O)N[C@@H](CO)C(=O)N[C@@H](CCC(=O)O)C(=O)N[C@H](C(=O)N[C@@H](Cc1ccc(O)cc1)C(N)=O)[C@@H](C)O)C(C)C)[C@@H](C)O
notes: also called 27; compound 27

The binders below were run against T1, human amylin receptor (amylin 3(a) …) (assay: SPA displacement of 125I-rat amylin, hAmylin 3(a) receptor membranes).
How it was run: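 One-site competition analysis of SPA counts yielded IC₅₀ as a measure of affinity. Membranes were at 35 ng/μL final; incubation was 120 min at 25° C, pH 7.4.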

IC50 [nM]	Binder
0.649	B1
0.79	B2
0.939	B3
0.695	B4
0.428	B5
0.837	B6
